Reference: patent publication US20050095655A1, “Solution-based methods for detecting MHC-binding peptides” (priority 2003, published 2005)

Legend:
[1] = target: monomer HLA-A*0201/CMVpp65 (Homo sapiens, UniProt P04439, D140Y/D185E/D98H/E176V/E277Q/G131W/G231S/I119V/I121R/I166T/I218V/L300P/L318F/N151K/N90K/P208A/P217A/Q86G/Q94H/R138H/R169H/T345S); assay: Exchange of fluorescent tracer peptide on template monomer, no competitor; settings: after 120 h
[2] = target: monomer HLA-A*0201/HIVpol (Homo sapiens, UniProt P04439, D140Y/D185E/D98H/E176V/E277Q/G131W/G231S/I119V/I121R/I166T/I218V/L300P/L318F/N151K/N90K/P208A/P217A/Q86G/Q94H/R138H/R169H/T345S); assay: as above

FLPSDC(FITC)FPSV [HBVc-FITC]
% exchange [1]: about 80%
maximum percentage of exchange [2]: 40%
